Test results: the RNAGym collection of RNA variant scans (doi:10.7554/elife.90254)

B1: OR4K15 (parent)
chain: GUUAACGGUCAUAGGCCAUGGAAACUAGGAGCACCAUUUCGCUGCCAGUGAAGAAAUGAACAAAGAAAAUCUGGGCCAGGCAGGCAUCAAAAGAAAUAGUCUUGCGCUCAACCAGAAAGUCUGUAAUCAUUUUAAGGGUA

Variants of: B1
Experiment: self-cleavage, relative activity (ratio to wild type); higher = more cleavage; in vitro, sequencing; the parent is a self-cleaving ribozyme

Variant | self-cleavage
U102C A135U | 2.46
A30U U49C | 1.48
U2A A91G | 0.7
U43G A51U | 2.16
U43G A51G | 2.35
C40U A67G | 0.82
A22G A110G | 0.08
A36G U131C | 1.59
A63U A90G | 1.76
A66G A135U | 1.08
A36U U43A | 1.85
G65U G138A | 1.24
C40A A111G | 0.02
A47G A60G | 0.74
U26C A82U | 0.28
A18U A116U | 0.15
A98G U127A | 0.78
A98U A116U | 0.97
A63G A94G | 1.98
U12C U102C | 1.22
A67G U132A | 1.42
G7U U131C | 1.14
A54C A64G | 1.36
A86G A114U | 0.03

Variant | self-cleavage
A47U A118G | 0.76
G31C U133C | 1.95
A68C A82U | 0.23
U39C A117G | 1.95
C16U U97C | 1.23
A30U A118G | 1.45
G80A A116G | 0.03
A114G U120A | 0.2
A125U U127C | 1.28
G65C A89U | 2.04
C6A A95G | 0.79
C6U C46U | 1.03
U124C U131C | 0.8
C61U A89G | 1.62
A68G U108C | 0.01
A90U | 1.96
A23U U87C | 1.08
A23G U39C | 1.54
U43C U108A | 0.02
U87C A117C | 0
A67G C88A | 1.16
A56G A140U | 2.1
A78U A111G | 0.02
U38C A54U | 2.56

Variant | self-cleavage
C88U A129G | 1.65
A5G A125G | 0.42
A117U A126G | 0.89
A63G U127A | 1.47
U19A U122C | 0.71
G41C | 1.78
U70C A110G | 0.06
G79A A110U | 0.24
G31A A86G | 1.75
G31A A60G | 0.77
A78C U102C | 0.42
U39C G106A | 0.01
A114C U122A | 0.04
U130G A135G | 1.08
G65A A126U | 0.76
A55G U70C | 0.29
G80A U108C | 0.01
A47G A92G | 1.02
A52G A56G | 0.76
A11G A90U | 1.69
A52G A86U | 1.33
G48A A126U | 1.9
A52G U97G | 1.31
G29A U72C | 0.27

Variant | self-cleavage
U37C A51U | 1.83
U9C A59G | 1.32
A18G U108C | 0.02
A11U U72C | 0.35
U38A A62G | 1.19
A5G A111G | 0.08
A78U A117U | 0.3
A69U A96G | 2.35
U57A A62G | 1.13
G74C A96G | 0.29
C32U U38C | 1.02
U19C A64G | 1.09
C25U A91U | 1.13
A60G U122C | 0.84
U2C C10A | 1.94
A96C C109U | 0.21
A27G A78G | 0.3
A60G A89U | 1.5
A13U U124C | 1.37
A36U A135C | 1.65
A36C G41U | 1.47
U37C A47U | 0.63
A111U U120C | 0.03
A27G A54U | 1.03

Variant | self-cleavage
U39C U72A | 0.32
C35U A95G | 1.74
U2C G104C | 0.1
U57A A68U | 1.15
U2A G44C | 0.79
U72A C85U | 0.36
A18G C46U | 1.34
A56G G106U | 0.01
A56C U108C | 0.01
A18G A69U | 1.94
G7A U139C | 1.82
U43C U87A | 1.94
U72A A135G | 0.21
A24U A86G | 1.8
A5G A118C | 1
A51G A67G | 1.07
A59G G104A | 0.06
G7U A95G | 1.43
A30U U39C | 0.9
A55U U132C | 2.21
A4G U122A | 1.37
U72C A118G | 0.1
A69G A96C | 1.58
C25G A59G | 0.57

Variant | self-cleavage
A63G U122A | 1.47
G75C | 0.17
C42G A47U | 1.02
G21A A30G | 1.51
G31C U87C | 2.1
C113U | 0.08
U39A U133C | 1.76
A18G A22G | 1.01
U127C U131C | 0.51
A94C U131C | 0.24
A11G U108A | 0.03
A24C A27G | 1.25
A24G A129G | 1.15
U87C C101A | 0.14
A89G A116G | 0.7
A78G A94G | 0.19
A68U A90G | 1.18
A54U U127C | 0.18
A23G A129C | 0.82
A33G U100C | 2.23
A27C A78G | 0.21
A54G U139C | 1.68
A68G A111G | 0.01
C45U A51G | 1.58

Variant | self-cleavage
A23G A90G | 0.8
C71A A78U | 0.26
A5G U72A | 0.43
U37G A47G | 1.16
U37C A78G | 0.26
A24C A30U | 0.99
C101G U120C | 0.03
A89U U108C | 0.02
A63G A92G | 1.66
A94G U130G | 1.09
U26A A114G | 0.2
A5G U120G | 0.39
U122A | 1.21
U19C U133C | 2.01
A94U U120C | 1.1
A36C A126G | 1.17
U57C A118G | 0.43
G115A A134G | 0.12
A68G A89U | 2.23
A54U G106A | 0.02
A62U A94G | 1.69
A22U A67G | 1.87
G7A A18G | 0.64
